Source: publication PMC2151542

Target: MthK channel (Methanobacterium thermoautotrophicum) (UniProt O27564)
Assay: single-channel recording in planar lipid bilayers

Substance “charybdotoxin (from UniProt P13487 23-59) (peptide)” has a Kd of 1 nM.
